Test [1] has as its target monkey CD33 protein (monkey). Briefly: ELISA, coated monkey CD33, antibody 1 nM.
The target of test [2] is murine CD33 protein (murine) (UniProt Q63994). Briefly: ELISA, coated murine CD33, antibody 10 nM.
The target of test [3] is monkey CD33 protein (monkey). Briefly: ELISA, coated monkey CD33, antibody 100 nM. For orientation: An ELISA detects its analyte on a solid surface through an enzyme-linked reagent.
The target in test [4] is monkey CD33 protein (monkey). As to the kind of experiment: ELISA, coated monkey CD33, antibody 10 nM.
In test [5] the target is monkey CD33 protein (monkey). As to the kind of experiment: ELISA, coated monkey CD33, antibody 0.0001 nM.
The target of test [6] is monkey CD33 on HEK293T-monkey CD33 cells (monkey). Briefly: FACS on HEK293T-monkey CD33 cells.
Test [7] concerns the target monkey CD33 protein (monkey). As to the kind of experiment: ELISA, coated monkey CD33, antibody 0.01 nM.
Test [8] has as its target monkey CD33 protein (monkey). As to the kind of experiment: ELISA, coated monkey CD33, antibody 0.001 nM.
The target in test [9] is monkey CD33 protein (monkey). Briefly: ELISA, coated monkey CD33, antibody 100 nM. This is another data set of the same source.
Test [10] addresses monkey CD33 protein (monkey). Briefly: ELISA, coated monkey CD33, antibody 1 nM. This is another data set of the same source.
Test [11] deals with murine CD33 protein (murine) (UniProt Q63994). As to the kind of experiment: ELISA, coated murine CD33, antibody 1 nM.
Test [12] deals with monkey CD33 protein (monkey). Briefly: ELISA, coated monkey CD33, antibody 0.1 nM.
The target in test [13] is monkey CD33 on HEK293T-monkey CD33 cells (monkey). As to the kind of experiment: FACS on HEK293T-monkey CD33 cells. This is another data set of the same source.
For test [14], the target named is murine CD33 protein (murine) (UniProt Q63994). Briefly: ELISA, coated murine CD33, antibody 0.01 nM.
Test [15] has as its target monkey CD33 protein (monkey). As to the kind of experiment: ELISA, coated monkey CD33, antibody 0.001 nM. This is another data set of the same source.
The target in test [16] is monkey CD33 protein (monkey). Briefly: ELISA, coated monkey CD33, antibody 0.01 nM. This is another data set of the same source.
In test [17] the target is murine CD33 protein (murine) (UniProt Q63994). As to the kind of experiment: ELISA, coated murine CD33, antibody 0.001 nM.
Test [18] shares this target. Briefly: ELISA, coated murine CD33, antibody 0.1 nM.
In test [19] the target is monkey CD33 protein (monkey). Briefly: ELISA, coated monkey CD33, antibody 10 nM. This is another data set of the same source.
Test [20] deals with murine CD33 protein (murine) (UniProt Q63994). As to the kind of experiment: ELISA, coated murine CD33, antibody 0.0001 nM.
For test [21], the target named is monkey CD33 protein (monkey). As to the kind of experiment: ELISA, coated monkey CD33, antibody 0.0001 nM. This is another data set of the same source.
The target of test [22] is murine CD33 protein (murine) (UniProt Q63994). Briefly: ELISA, coated murine CD33, antibody 100 nM.

Consider one substance from US20240124575A1.

Like-named read-outs stand apart in the source and are kept apart here.

Chain of murine CD33 protein (murine) (Q63994 18-240 limits assumed): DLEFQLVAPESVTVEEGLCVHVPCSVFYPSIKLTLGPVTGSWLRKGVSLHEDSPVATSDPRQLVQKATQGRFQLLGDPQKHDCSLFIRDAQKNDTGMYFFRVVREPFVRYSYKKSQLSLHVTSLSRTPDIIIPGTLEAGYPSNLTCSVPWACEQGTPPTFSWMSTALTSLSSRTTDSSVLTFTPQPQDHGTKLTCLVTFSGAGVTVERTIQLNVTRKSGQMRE

anti-hel-hIgG1 antibody: the OD450 in test [1] was determined as 0.04 OD450; in test [2] it was 0.07 OD450; in test [3], 0.06 OD450; in test [4], 0.06 OD450; in test [5] it was 0.06 OD450; in test [7] it was 0.04 OD450. Besides, the OD450 in test [8] turned out to be 0.07 OD450; in test [9] it was 0.08 OD450; in [10], 0.05 OD450; in test [11], 0.06 OD450; in test [12] it was 0.05 OD450; in test [14], 0.06 OD450. Moreover, the OD450 in test [15] is 0.04 OD450; in [16], 0.05 OD450; in test [17] it was 0.06 OD450; in test [18], 0.06 OD450; in test [19] it was 0.05 OD450; in [20], 0.06 OD450. The OD450 in [21] worked out at 0.05 OD450; in [22], 0.08 OD450. Moreover, the Max MFI in test [6] was found to be 107 MFI; in test [13], 322 MFI.
